# Source: patent US9267129B2, “Compositions and methods for conferring herbicide resistance” (BEN-GURION UNIVERSITY OF THE NEGEV RESEARCH AND DEVELOPMENT …, priority 2011, dated 2016)
# Test: AHAS catalytic activity, pyruvate dependence
# Format: biochemical, Parietochloris incisa
# Protocol: To overexpress the hexahistidine (6xHis)-tagged PiAHAS genes in E. coli strain JM109, plasmids pQE-WT and pQE-MUT were used. These plasmids were constructed by inserting the BamHI-SalI fragment containing the cloned PiAHAS wt and mutant genes into plasmid pQE30 (Qiagen, Hilden, Germany). These plasmids express PiAHAS fused at its N-terminus to the pQE30 6xHis leader. pQE-WT and pQE-MUT were transformed into E. coli for expression. The transformed cells were grown, IPTG induced, and harvested as described previously (Hill C et al. Purification of Escherichia coli acetohydroxyacid synthase isoenzyme II and reconstitution of active enzyme from its individual pure subunits. Biochem. J. 1997, 327, 891-898). Bacterial cells were disrupted by sonication in a binding buffer with 20 mM imidazol, 0.5 M sodium chloride, 50 mM sodium dihydrogen phosphate (pH 8.0), 20 μM FAD and 50 μl/g cells of protease inhibitor cocktail (Sigma-Aldrich, Israel). After 30 min of centrifugation at 20,000×g, the supernatant was loaded on a 1.5×8 cm column of Ni2+-nitrilotriacetatic acid-agarose (Qiagen) previously washed with the binding buffer. The column was then washed with 80 ml of the binding buffer, and the His-AHAS protein eluted with 0.4 M imidazol in the binding buffer. The fractions were dialyzed against 50 mM potassium phosphate buffer (pH 7.6), containing 20 μM FAD. The protein was concentrated for storage at −20 °C by dialysis against same buffer, containing 50% glycerol. The AHAS catalytic activity was determined as previously described (Bar-Ilan A et al. Binding and activation of thiamin diphosphate in acetohydroxyacid synthase. Biochemistry (N.Y.) 2001, 40, 11946-11954). The reactions were carried for 20 min at 37 °C in 0.1 M potassium phosphate buffer (pH 7.6), containing 10 mM magnesium chloride, 0.1 mM ThDP, 75 μM FAD, 5 mM EDTA, 1 mM DTT with 100 mM pyruvate as substrate, except where otherwise indicated. The activity is expressed in units (U) (1 U=1 μmol of acetolactate formed min^−1). Km for pyruvate and Ki for SMM were determined by varying the concentration of the factor in question. Protein concentration was determined by the dye-binding method of Bradford (Bradford MM. A rapid and sensitive method for the quantitation of microgram quantities of protein utilizing the principle of protein-dye binding. Anal. Biochem. 1976, 72, 248-254), with bovine serum albumin as standard. Km calculations were fit with the program “Sigma-Plot” to Michaelis-Menten equation. For Ki calculations, the lines were fit to equations: V=Vo×Ki/(Ki+[SMM]), for wild-type; V=Vf+(Vo−Vf)×Ki/(Ki+[SMM]), for mutant.
# Enzymatic activity of the wild type and mutant forms of AHAS in the presence of different Pyruvate substrate concentrations was assayed with 6.9 μg/ml of PiAHAS wild-type protein and 11.5 μg/ml of mutant protein (FIG. 5) and the specific activity and Km were calculated.
Molecule,"Km (37° C., pH 7.6) [mM]","Specific activity (37° C., pH 7.6) [U × mg^−1]",Specific activity (purified protein) [U/mg],decrease in affinity to the Pyruvate substrate compared to wild type (mutant versus wild type) [fold],decrease in specific / enzymatic activity compared to wild type (mutant versus wild type) [fold]
"Wild-type: Parietochloris incisa acetohydroxyacid synthase (AHAS), SEQ ID NO: 1, expressed as N-terminal hexahistidine-tagged protein (protein, listed as Parietochloris incisa, N-terminal hexahistidine tag) MQGTMRPTAGALQQTVGCWHVPAGIPHAQQALRGRILPEELKQRCSATKPRAARQSAVTAAKLAEGKAGTPSRSLRQQPAAPQQQQQQQDSNELVALREAAKASLSSPAPAEWVDRFGSEPRKGADILVQCLEREGAFRVFAYPGGASMEIHQALTRSGIIRNILCRHEQGEIFAAEGYAKCTGDVGVCIATSGPGATNLVTGLADAMLDSVPLVAITGQVPRKMIGTDGFQETPIVEVTRQITKHNFLVMDLDDLPRIMKEAFYLARTGRPGPVLVDVPKDIQQQLAVPDWDTPMAISGYMSRLPAPPNPSQLAAVVRALKEAKRPTLYVGGGALDSSAELREFVRLTGIPVAQTLMGLGTFPEEDPLALQMLGMHGTVYANYAVNDSDLLLAFGVRFDDRVTGKLEAFASRACIVHIDIDPAEICKNKEAHIPICADLRASLIALNELLRRDPLPEGAFADWRAAIEAKKQEFPMTFPERDDVIIPQRAIQMLYEETNGEAIISTGVGQHQMWAAQWYQYNEPRRWVTSGGLGSMGFGLPSALGAAAVAYDGTDGRPKKVVVDIDGDGSFLMNCQELATAAVEGLETKIMILNNQHLGMVVQWEDRFYKANRAHTYLGHRANEYHTTLDESHIFPDFVMMAKSCGVPGRRVIKPEELRGAIREMLDTPGPFLLDVMVPHVEHVLPMIPGGGSFKDIITKGDGRDEY",49.4 ± 2.1,3.00 ± 0.05,3,–,–
"Mutant: Parietochloris incisa AHAS with Trp605 substituted by Serine (W605S), SEQ ID NO: 2, hexahistidine-tagged (protein, listed as Parietochloris incisa, hexahistidine tag) MQGTMRPTAGALQQTVGCWHVPAGIPHAQQALRGRILPEELKQRCSATKPRAARQSAVTAAKLAEGKAGTPSRSLRQQPAAPQQQQQQQDSNELVALREAAKASLSSPAPAEWVDRFGSEPRKGADILVQCLEREGAFRVFAYPGGASMEIHQALTRSGIIRNILCRHEQGEIFAAEGYAKCTGDVGVCIATSGPGATNLVTGLADAMLDSVPLVAITGQVPRKMIGTDGFQETPIVEVTRQITKHNFLVMDLDDLPRIMKEAFYLARTGRPGPVLVDVPKDIQQQLAVPDWDTPMAISGYMSRLPAPPNPSQLAAVVRALKEAKRPTLYVGGGALDSSAELREFVRLTGIPVAQTLMGLGTFPEEDPLALQMLGMHGTVYANYAVNDSDLLLAFGVRFDDRVTGKLEAFASRACIVHIDIDPAEICKNKEAHIPICADLRASLIALNELLRRDPLPEGAFADWRAAIEAKKQEFPMTFPERDDVIIPQRAIQMLYEETNGEAIISTGVGQHQMWAAQWYQYNEPRRWVTSGGLGSMGFGLPSALGAAAVAYDGTDGRPKKVVVDIDGDGSFLMNCQELATAAVEGLETKIMILNNQHLGMVVQSEDRFYKANRAHTYLGHRANEYHTTLDESHIFPDFVMMAKSCGVPGRRVIKPEELRGAIREMLDTPGPFLLDVMVPHVEHVLPMIPGGGSFKDIITKGDGRDEY",71.7 ± 2.9,1.46 ± 0.03,–,2,2
